{"source": "paper doi:10.1101/2024.11.16.623948", "about": "“Biochemical principles of miRNA targeting in flies”", "key": {"FLAG-Ago1 [1]": {"target": "T1, FLAG-Ago1 (Drosophila melanogaster, UniProt A1Z9J5 1-950)", "T1 sequence (A1Z9J5 entry or part of it)": "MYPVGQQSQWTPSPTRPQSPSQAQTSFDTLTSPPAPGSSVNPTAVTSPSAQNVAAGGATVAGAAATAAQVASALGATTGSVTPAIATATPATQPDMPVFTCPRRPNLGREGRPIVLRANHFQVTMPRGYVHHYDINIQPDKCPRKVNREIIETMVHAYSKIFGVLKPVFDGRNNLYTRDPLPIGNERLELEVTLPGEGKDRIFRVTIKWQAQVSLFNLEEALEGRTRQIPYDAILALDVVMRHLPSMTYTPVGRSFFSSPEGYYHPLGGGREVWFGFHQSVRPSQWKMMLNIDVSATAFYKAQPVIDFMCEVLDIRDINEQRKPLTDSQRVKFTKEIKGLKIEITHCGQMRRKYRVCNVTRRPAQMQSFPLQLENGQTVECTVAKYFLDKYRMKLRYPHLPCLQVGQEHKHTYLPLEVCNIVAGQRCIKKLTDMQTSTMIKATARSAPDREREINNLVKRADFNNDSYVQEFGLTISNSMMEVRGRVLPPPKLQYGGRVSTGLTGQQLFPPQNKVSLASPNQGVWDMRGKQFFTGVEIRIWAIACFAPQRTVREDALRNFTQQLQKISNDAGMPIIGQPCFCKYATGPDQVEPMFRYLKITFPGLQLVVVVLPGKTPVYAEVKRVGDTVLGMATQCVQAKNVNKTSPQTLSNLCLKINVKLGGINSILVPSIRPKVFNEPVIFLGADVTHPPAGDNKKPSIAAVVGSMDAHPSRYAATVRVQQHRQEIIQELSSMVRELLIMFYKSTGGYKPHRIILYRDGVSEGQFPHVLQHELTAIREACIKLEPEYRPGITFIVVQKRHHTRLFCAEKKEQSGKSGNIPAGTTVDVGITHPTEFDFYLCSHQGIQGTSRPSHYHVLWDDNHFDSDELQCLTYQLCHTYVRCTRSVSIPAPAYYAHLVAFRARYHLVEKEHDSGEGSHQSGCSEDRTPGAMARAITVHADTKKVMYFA", "experiment": "RBNS; miR-184 guide; RBNS: 20 mM HEPES-KOH pH 7.9, 100 mM KOAc, 3.5 mM Mg(OAc) (magnesium acetate), 0.05% CHAPS, 2 mM DTT, 8% glycerol, BSA, tRNA, 25 C 2 h; filter binding: 25 mM HEPES-KOH pH 7.9, 110 mM KOAc, 3.5 mM magnesium acetate, 2 mM DTT, BSA, tRNA, 8% glycerol, 25 C 2 h; competition: 18 mM HEPES-KOH pH 7.4, 100 mM KOAc, 3 mM magnesium acetate, 5 mM DTT, 0.01% IGEPAL, tRNA, 25 C 1 h", "details": "protein: recombinant, tags: FLAG"}, "FLAG-Ago1 [2]": {"target": "T1, FLAG-Ago1", "experiment": "RBNS; let-7 guide; RBNS: 20 mM HEPES-KOH pH 7.9, 100 mM KOAc, 3.5 mM Mg(OAc) (magnesium acetate), 0.05% CHAPS, 2 mM DTT, 8% glycerol, BSA, tRNA, 25 C 2 h; filter binding: 25 mM HEPES-KOH pH 7.9, 110 mM KOAc, 3.5 mM magnesium acetate, 2 mM DTT, BSA, tRNA, 8% glycerol, 25 C 2 h; competition: 18 mM HEPES-KOH pH 7.4, 100 mM KOAc, 3 mM magnesium acetate, 5 mM DTT, 0.01% IGEPAL, tRNA, 25 C 1 h", "details": "protein: recombinant, tags: FLAG"}, "FLAG-Ago1 [3]": {"target": "T1, FLAG-Ago1", "experiment": "RBNS; miR-11 guide; RBNS: 20 mM HEPES-KOH pH 7.9, 100 mM KOAc, 3.5 mM Mg(OAc) (magnesium acetate), 0.05% CHAPS, 2 mM DTT, 8% glycerol, BSA, tRNA, 25 C 2 h; filter binding: 25 mM HEPES-KOH pH 7.9, 110 mM KOAc, 3.5 mM magnesium acetate, 2 mM DTT, BSA, tRNA, 8% glycerol, 25 C 2 h; competition: 18 mM HEPES-KOH pH 7.4, 100 mM KOAc, 3 mM magnesium acetate, 5 mM DTT, 0.01% IGEPAL, tRNA, 25 C 1 h", "details": "protein: recombinant, tags: FLAG"}, "[4]": {"target": "T2, Ago1 (RISC assembled in embryo lysate) (Drosophila melanogaster, UniProt A1Z9J5 1-950)", "T2 sequence (A1Z9J5 entry or part of it)": "as above", "experiment": "competition; let-7 guide; nearly same affinity as fully complementary; RBNS: 20 mM HEPES-KOH pH 7.9, 100 mM KOAc, 3.5 mM Mg(OAc) (magnesium acetate), 0.05% CHAPS, 2 mM DTT, 8% glycerol, BSA, tRNA, 25 C 2 h; filter binding: 25 mM HEPES-KOH pH 7.9, 110 mM KOAc, 3.5 mM magnesium acetate, 2 mM DTT, BSA, tRNA, 8% glycerol, 25 C 2 h; competition: 18 mM HEPES-KOH pH 7.4, 100 mM KOAc, 3 mM magnesium acetate, 5 mM DTT, 0.01% …", "details": "protein: native; g2-g21, G:U at g4"}, "[5]": {"target": "T2, Ago1 (RISC assembled in embryo lysate)", "experiment": "competition; let-7 guide (text: 110-fold); RBNS: 20 mM HEPES-KOH pH 7.9, 100 mM KOAc, 3.5 mM Mg(OAc) (magnesium acetate), 0.05% CHAPS, 2 mM DTT, 8% glycerol, BSA, tRNA, 25 C 2 h; filter binding: 25 mM HEPES-KOH pH 7.9, 110 mM KOAc, 3.5 mM magnesium acetate, 2 mM DTT, BSA, tRNA, 8% glycerol, 25 C 2 h; competition: 18 mM HEPES-KOH pH 7.4, 100 mM KOAc, 3 mM magnesium acetate, 5 mM DTT, 0.01% IGEPAL, tRNA, 25 C 1 h", "details": "protein: native; g2-g21, G:U at g4 and g5"}, "FLAG-Ago1 [6]": {"target": "T1, FLAG-Ago1", "experiment": "RBNS; bantam guide; RBNS: 20 mM HEPES-KOH pH 7.9, 100 mM KOAc, 3.5 mM Mg(OAc) (magnesium acetate), 0.05% CHAPS, 2 mM DTT, 8% glycerol, BSA, tRNA, 25 C 2 h; filter binding: 25 mM HEPES-KOH pH 7.9, 110 mM KOAc, 3.5 mM magnesium acetate, 2 mM DTT, BSA, tRNA, 8% glycerol, 25 C 2 h; competition: 18 mM HEPES-KOH pH 7.4, 100 mM KOAc, 3 mM magnesium acetate, 5 mM DTT, 0.01% IGEPAL, tRNA, 25 C 1 h", "details": "protein: recombinant, tags: FLAG"}, "FLAG-Ago1 [7]": {"target": "T1, FLAG-Ago1", "experiment": "RBNS; miR-11 guide; G:U site analysis; RBNS: 20 mM HEPES-KOH pH 7.9, 100 mM KOAc, 3.5 mM Mg(OAc) (magnesium acetate), 0.05% CHAPS, 2 mM DTT, 8% glycerol, BSA, tRNA, 25 C 2 h; filter binding: 25 mM HEPES-KOH pH 7.9, 110 mM KOAc, 3.5 mM magnesium acetate, 2 mM DTT, BSA, tRNA, 8% glycerol, 25 C 2 h; competition: 18 mM HEPES-KOH pH 7.4, 100 mM KOAc, 3 mM magnesium acetate, 5 mM DTT, 0.01% IGEPAL, tRNA, 25 C 1 h", "details": "protein: recombinant; tags: FLAG; g2-g7 + t1A"}, "FLAG-Ago1 [8]": {"target": "T1, FLAG-Ago1", "experiment": "RBNS; miR-11 guide; bulge site analysis; RBNS: 20 mM HEPES-KOH pH 7.9, 100 mM KOAc, 3.5 mM Mg(OAc) (magnesium acetate), 0.05% CHAPS, 2 mM DTT, 8% glycerol, BSA, tRNA, 25 C 2 h; filter binding: 25 mM HEPES-KOH pH 7.9, 110 mM KOAc, 3.5 mM magnesium acetate, 2 mM DTT, BSA, tRNA, 8% glycerol, 25 C 2 h; competition: 18 mM HEPES-KOH pH 7.4, 100 mM KOAc, 3 mM magnesium acetate, 5 mM DTT, 0.01% IGEPAL, tRNA, 25 C 1 h", "details": "protein: recombinant; tags: FLAG; g2-g7 + t1A"}}}
{"binder": "miR-184 / 8mer-b5.6C (printed b5.6CA) (dsRNA, guide 5' phosphate) RNA 1: UGGACGGAGAACUGAUAAGGGC RNA 2: UCCCGUCCA", "values": [{"measurement": "Kd", "setting": "FLAG-Ago1 [1]; nucleation bulge C between t5 and t6", "result": 0.038, "unit": "nM"}]}
{"binder": "miR-184 / 8mer-x4C (dsRNA, guide 5' phosphate) RNA 1: UGGACGGAGAACUGAUAAGGGC RNA 2: UCCGCCCA", "values": [{"measurement": "Kd", "setting": "FLAG-Ago1 [1]; mismatch at t4", "result": "~0.13", "unit": "nM"}]}
{"binder": "let-7 / 7mer-m8,w2 (dsRNA, guide 5' phosphate) RNA 1: UGAGGUAGUAGGUUGUAUAGU RNA 2: CUACCUU", "values": [{"measurement": "Kd", "setting": "FLAG-Ago1 [2]; G:U at g2", "result": 0.278, "unit": "nM"}]}
{"binder": "let-7 / 7mer-A1 (dsRNA, guide 5' phosphate) RNA 1: UGAGGUAGUAGGUUGUAUAGU RNA 2: UACCUCA", "values": [{"measurement": "Kd", "setting": "FLAG-Ago1 [2]; g2-g7 + t1A", "result": 0.0221, "unit": "nM"}]}
{"binder": "miR-11 / 8mer-b5.6G (dsRNA, guide 5' phosphate) RNA 1: CAUCACAGUCUGAGUUCUUGC RNA 2: CUGGUGAUA", "values": [{"measurement": "Kd", "setting": "FLAG-Ago1 [3]; nucleation bulge G between t5 and t6", "result": 0.107, "unit": "nM"}]}
{"binder": "let-7 / 6mer-A1 (dsRNA, guide 5' phosphate) RNA 1: UGAGGUAGUAGGUUGUAUAGU RNA 2: ACCUCA", "values": [{"measurement": "Kd", "setting": "FLAG-Ago1 [2]; g2-g6 + t1A", "result": 0.092, "unit": "nM"}]}
{"binder": "miR-184 / 6mer-m8 (dsRNA, guide 5' phosphate) RNA 1: UGGACGGAGAACUGAUAAGGGC RNA 2: UCCGUC", "values": [{"measurement": "Kd", "setting": "FLAG-Ago1 [1]; g3-g8", "result": 0.321, "unit": "nM"}]}
{"binder": "let-7 / competitor G:U at g4 (dsRNA, 2'-O-methyl and phosphorothioate at t10-t11) RNA 1: UGAGGUAGUAGGUUGUAUAGU RNA 2: GAUACUAUACAACCUACUACUUCAACCU", "values": [{"measurement": "binding result", "setting": "[4]", "result": "binds"}]}
{"binder": "miR-11 / 8mer-w8 (dsRNA, guide 5' phosphate) RNA 1: CAUCACAGUCUGAGUUCUUGC RNA 2: UUGUGAUA", "values": [{"measurement": "Kd", "setting": "FLAG-Ago1 [3]; G:U at g8", "result": 0.0612, "unit": "nM"}]}
{"binder": "let-7 / competitor G:U at g4-g5 (dsRNA, 2'-O-methyl and phosphorothioate at t10-t11) RNA 1: UGAGGUAGUAGGUUGUAUAGU RNA 2: GAUACUAUACAACCUACUAUUUCAACCU", "values": [{"measurement": "binding signal", "setting": "[5]", "result": "120 ± 20 fold Kd vs fully complementary"}]}
{"binder": "bantam / 7mer-m8,w2 (dsRNA, guide 5' phosphate) RNA 1: UGAGAUCAUUUUGAAAGCUGAUU RNA 2: UGAUCUU", "values": [{"measurement": "Kd", "setting": "FLAG-Ago1 [6]; G:U at g2", "result": 0.866, "unit": "nM"}]}
{"binder": "let-7 / 8mer-w8 (dsRNA, guide 5' phosphate) RNA 1: UGAGGUAGUAGGUUGUAUAGU RNA 2: UUACCUCA", "values": [{"measurement": "Kd", "setting": "FLAG-Ago1 [2]; G:U at g8", "result": 0.0154, "unit": "nM"}]}
{"binder": "miR-184 / 7mer-A1 (dsRNA, guide 5' phosphate) RNA 1: UGGACGGAGAACUGAUAAGGGC RNA 2: CCGUCCA", "values": [{"measurement": "Kd", "setting": "FLAG-Ago1 [1]; g2-g7 + t1A", "result": 0.037, "unit": "nM"}]}
{"binder": "let-7 / 8mer-b5.6A (dsRNA, guide 5' phosphate) RNA 1: UGAGGUAGUAGGUUGUAUAGU RNA 2: CUAACCUCA", "values": [{"measurement": "Kd", "setting": "FLAG-Ago1 [2]; nucleation bulge A between t5 and t6", "result": 0.12, "unit": "nM"}]}
{"binder": "let-7 / 6mer-m8 (dsRNA, guide 5' phosphate) RNA 1: UGAGGUAGUAGGUUGUAUAGU RNA 2: CUACCU", "values": [{"measurement": "Kd", "setting": "FLAG-Ago1 [2]; g3-g8", "result": 0.328, "unit": "nM"}]}
{"binder": "bantam / 8mer (dsRNA, guide 5' phosphate) RNA 1: UGAGAUCAUUUUGAAAGCUGAUU RNA 2: UGAUCUCA", "values": [{"measurement": "Kd", "setting": "FLAG-Ago1 [6]; g2-g8 + t1A", "result": 0.0189, "unit": "nM"}]}
{"binder": "bantam / 6mer-m8 (dsRNA, guide 5' phosphate) RNA 1: UGAGAUCAUUUUGAAAGCUGAUU RNA 2: UGAUCU", "values": [{"measurement": "Kd", "setting": "FLAG-Ago1 [6]; g3-g8", "result": 1.01, "unit": "nM"}]}
{"binder": "let-7 / 8mer (dsRNA, guide 5' phosphate) RNA 1: UGAGGUAGUAGGUUGUAUAGU RNA 2: CUACCUCA", "values": [{"measurement": "Kd", "setting": "FLAG-Ago1 [2]; guide g2-g8 + t1A, site in 20-nt random RBNS library", "result": 0.00173, "unit": "nM"}]}
{"binder": "miR-184 / 7mer-m8,w2 (dsRNA, guide 5' phosphate) RNA 1: UGGACGGAGAACUGAUAAGGGC RNA 2: UCCGUCU", "values": [{"measurement": "Kd", "setting": "FLAG-Ago1 [1]; G:U at g2", "result": 0.154, "unit": "nM"}]}
{"binder": "miR-11 / 7mer-A1 (dsRNA, guide 5' phosphate) RNA 1: CAUCACAGUCUGAGUUCUUGC RNA 2: UGUGAUA", "values": [{"measurement": "Kd", "setting": "FLAG-Ago1 [7]", "result": 0.0812, "unit": "nM"}, {"measurement": "Kd", "setting": "FLAG-Ago1 [8]", "result": 0.07, "unit": "nM"}]}
